Test results: patent US20260193293A1, “PEPTIDES CAPABLE OF INHIBITING PROTEIN-PROTEIN INTERACTIONS AT GABAB1A SUBUNIT AND USES THEREOF” (UNIVERSITY OF COPENHAGEN, priority 2022, published 2026)
Non-standard residues stand in square brackets, D forms with d. NMeW = CN[C@@H](Cc1c[nH]c2ccccc12)C(=O)O; NMeI = CC[C@H](C)[C@H](NC)C(=O)O; NMeE = CN[C@@H](CCC(=O)O)C(=O)O; NMeD = CN[C@@H](CC(=O)O)C(=O)O; NMeA = CN[C@@H](C)C(=O)O

Target: Sushi domains (SD1/2) protein of the GABAB1a (GB1a) subunit, recombinant
Test: FP competition

Sushi domains (SD1/2) protein of the GABAB1a (GB1a) subunit, recombinant, sequence (Q9Z0U4 29-158): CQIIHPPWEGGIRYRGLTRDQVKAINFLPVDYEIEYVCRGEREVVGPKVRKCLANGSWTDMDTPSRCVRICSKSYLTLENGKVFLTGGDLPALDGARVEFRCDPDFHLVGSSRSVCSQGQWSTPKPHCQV

Row | Ki [nM] | Binder
1 | 46600 | Ac-PWAAVWGPTVSRED-NH2
2 | 877 | Ac-PWAIVWAPTVSRED-NH2
3 | 45 | Ac-ETEFIAWGPTG[NMeD]ED-NH2 (SMILES CC[C@H](C)[C@H](NC(=O)[C@H](Cc1ccccc1)NC(=O)[C@H](CCC(=O)O)NC(=O)[C@@H](NC(=O)[C@H](CCC(=O)O)NC(C)=O)[C@@H](C)O)C(=O)N[C@@H](C)C(=O)N[C@@H](Cc1c[nH]c2ccccc12)C(=O)NCC(=O)N1CCC[C@H]1C(=O)N[C@H](C(=O)NCC(=O)N(C)[C@@H](CC(=O)O)C(=O)N[C@@H](CCC(=O)O)C(=O)N[C@@H](CC(=O)O)C(N)=O)[C@@H](C)O) […(N-Me-D)ED]
4 | 370 | Ac-PWA[NMeI]VWGPTVSRED-NH2 (SMILES CC[C@H](C)[C@@H](C(=O)N[C@H](C(=O)N[C@@H](Cc1c[nH]c2ccccc12)C(=O)NCC(=O)N1CCC[C@H]1C(=O)N[C@H](C(=O)N[C@H](C(=O)N[C@@H](CO)C(=O)N[C@@H](CCCNC(=N)N)C(=O)N[C@@H](CCC(=O)O)C(=O)N[C@@H](CC(=O)O)C(N)=O)C(C)C)[C@@H](C)O)C(C)C)N(C)C(=O)[C@H](C)NC(=O)[C@H](Cc1c[nH]c2ccccc12)NC(=O)[C@@H]1CCCN1C(C)=O) [PWA(N-Me-I)…]
5 | 600 | Ac-PWAIVWGPTVSRAD-NH2
6 | 7230 | Ac-PW[NMeA]IVWGPTVSRED-NH2 (SMILES CC[C@H](C)[C@H](NC(=O)[C@H](C)N(C)C(=O)[C@H](Cc1c[nH]c2ccccc12)NC(=O)[C@@H]1CCCN1C(C)=O)C(=O)N[C@H](C(=O)N[C@@H](Cc1c[nH]c2ccccc12)C(=O)NCC(=O)N1CCC[C@H]1C(=O)N[C@H](C(=O)N[C@H](C(=O)N[C@@H](CO)C(=O)N[C@@H](CCCNC(=N)N)C(=O)N[C@@H](CCC(=O)O)C(=O)N[C@@H](CC(=O)O)C(N)=O)C(C)C)[C@@H](C)O)C(C)C) [PW(N-Me-A)…]
7 | 555 | Ac-[dP]WAIVWGPTVSRED-NH2 (SMILES CC[C@H](C)[C@H](NC(=O)[C@H](C)NC(=O)[C@H](Cc1c[nH]c2ccccc12)NC(=O)[C@H]1CCCN1C(C)=O)C(=O)N[C@H](C(=O)N[C@@H](Cc1c[nH]c2ccccc12)C(=O)NCC(=O)N1CCC[C@H]1C(=O)N[C@H](C(=O)N[C@H](C(=O)N[C@@H](CO)C(=O)N[C@@H](CCCNC(=N)N)C(=O)N[C@@H](CCC(=O)O)C(=O)N[C@@H](CC(=O)O)C(N)=O)C(C)C)[C@@H](C)O)C(C)C) [p…]
8 | 18100 | Ac-PWAIVW[dA]PTVSRED-NH2 [PWAIVWaPTVSRED]
9 | 29 | Ac-ETEFIAWGPTGDE[NMeD]-NH2 (SMILES CC[C@H](C)[C@H](NC(=O)[C@H](Cc1ccccc1)NC(=O)[C@H](CCC(=O)O)NC(=O)[C@@H](NC(=O)[C@H](CCC(=O)O)NC(C)=O)[C@@H](C)O)C(=O)N[C@@H](C)C(=O)N[C@@H](Cc1c[nH]c2ccccc12)C(=O)NCC(=O)N1CCC[C@H]1C(=O)N[C@H](C(=O)NCC(=O)N[C@@H](CC(=O)O)C(=O)N[C@@H](CCC(=O)O)C(=O)N(C)[C@@H](CC(=O)O)C(N)=O)[C@@H](C)O) […(N-Me-D)]
10 | 552 | Ac-AWAIVWGPTVSRED-NH2
11 | 1500 | Ac-PWAIVWGATVSRED-NH2
12 | 833 | Ac-P[NMeW]AIVWGPTVSRED-NH2 (SMILES CC[C@H](C)[C@H](NC(=O)[C@H](C)NC(=O)[C@H](Cc1c[nH]c2ccccc12)N(C)C(=O)[C@@H]1CCCN1C(C)=O)C(=O)N[C@H](C(=O)N[C@@H](Cc1c[nH]c2ccccc12)C(=O)NCC(=O)N1CCC[C@H]1C(=O)N[C@H](C(=O)N[C@H](C(=O)N[C@@H](CO)C(=O)N[C@@H](CCCNC(=N)N)C(=O)N[C@@H](CCC(=O)O)C(=O)N[C@@H](CC(=O)O)C(N)=O)C(C)C)[C@@H](C)O)C(C)C) [P(N-Me-W)…]
13 | 1300 | Ac-PWAIVWGP[dT]VSRED-NH2 [PWAIVWGPtVSRED]
14 | 572 | Ac-PWAIVWGPTVSREA-NH2
15 | 480 | Ac-PWAIVWGPTVARED-NH2
16 | 14100 | Ac-PW[dA]IVWGPTVSRED-NH2 [PWa…]
17 | 31 | Ac-ETEFIAWGPTGD[NMeE]D-NH2 (SMILES CC[C@H](C)[C@H](NC(=O)[C@H](Cc1ccccc1)NC(=O)[C@H](CCC(=O)O)NC(=O)[C@@H](NC(=O)[C@H](CCC(=O)O)NC(C)=O)[C@@H](C)O)C(=O)N[C@@H](C)C(=O)N[C@@H](Cc1c[nH]c2ccccc12)C(=O)NCC(=O)N1CCC[C@H]1C(=O)N[C@H](C(=O)NCC(=O)N[C@@H](CC(=O)O)C(=O)N(C)[C@@H](CCC(=O)O)C(=O)N[C@@H](CC(=O)O)C(N)=O)[C@@H](C)O) […(N-Me-E)D]
18 | 605 | Ac-PWAIVWGPTVS[dR]ED-NH2 […rED]
19 | 686 | Ac-PWAIVWGPT[dV]SRED-NH2 […vSRED]
20 | 1030 | Ac-PWAIVWGPAVSRED-NH2
21 | 552 | Ac-PWAIVWGPTV[dS]RED-NH2 […sRED]
22 | 911 | Ac-PAAIVWGPTVSRED-NH2
23 | 341 | Ac-PWAIVWGPTVSAED-NH2
24 | 6860 | Ac-PWAIVWG[dP]TVSRED-NH2 [PWAIVWGpTVSRED]
25 | 1230 | Ac-P[dW]AIVWGPTVSRED-NH2 [Pw…]
26 | 318 | Ac-PWAIVWGPTASRED-NH2
